Laboratory results reported in patent US20040081659.

Assays:
[1] = system: Ac-4-trans-L-HypSSChgQ-SChg-(4-O-lactyl)-dAc-VIN
[2] = system: Ac-AbuSSChgQ-S(dS)-(4-O-P)-dAc-VIN
[3] = system: 4-O-(Ac-4-trans-L-HypSSChgQSV-glycolyl)-VIN
[4] = system: 4-O-(Ac-4-trans-L-HypSSChgQS-Glycine)-(dAc)-VIN
[5] = system: (4-O)-Ac-(4-trans-L-Hyp)SSChgQ-SL-(dAc)-VIN
[6] = system: Ac-AbuSSChgQ-SS-(4-O-P)-dAc-VIN
[7] = system: 4-O-(Ac-Abu-SSChgQ-SP)-dAc-VIN
[8] = system: Ac-4-trans-L-HypSSChgQSS-(4-O-Sar)-(dAc)-VIN
[9] = system: 4-O-(Ac-4-trans-L-HypSSChgQ-SS-4-trans-L-Hyp)-dAc-VIN
[10] = system: 4-O-(Ac-SSChgQ-SS-4-trans-L-Hyp)-dAc-VIN
[11] = system: 4-O-((2-OH)Ac-Abu-SSChgQ-S-P)-dAc-VIN
[12] = system: des-Acetylvinblastine-4-O-(N-Acetyl-4-trans-L-Hyp-Ser-Ser-Chg-Gln-Ser-Ser-Pro) ester
[13] = system: Ac-4-trans-L-HypSSChgQSChg-(4-O-glycolyl)-VIN
[14] = system: Ac-4-trans-L-HypSSChgQS-(4-O-Ala)-(dAc)-VIN
[15] = system: 4-O-(Ac-4-trans-L-HypSSChgQSS-Sar)-(dAc)-VIN
[16] = system: 4-O-(Ac-SSChgQ-SS-P)-dAc-VIN
[17] = system: 4-O-(Ac-SSChgQS-Gly)-(dAc)-VIN
[18] = system: 4-O-(Ac-4-trans-L-HypSSChgQSL-lactyl)-(dAc)-VIN

free prostate specific antigen (PSA)
Time to 50% Substrate Cleavage by York PSA [1]: 14 min
Time to 50% Substrate Cleavage by York PSA [2]: 60 min
Time to 50% Substrate Cleavage by York PSA [3]: 8 min
Time to 50% Substrate Cleavage by York PSA [4]: 30 min
Time to 50% Substrate Cleavage by York PSA [5]: 35 min
Time to 50% Substrate Cleavage by York PSA [6]: 7 min
Time to 50% Substrate Cleavage by York PSA [7]: 80 min
Time to 50% Substrate Cleavage by York PSA [8]: 15 min
Time to 50% Substrate Cleavage by York PSA [9]: 13 min
Time to 50% Substrate Cleavage by York PSA [10]: 22 min
Time to 50% Substrate Cleavage by York PSA [11]: 110 min
Time to 50% Substrate Cleavage by York PSA [12]: 17 min
Time to 50% Substrate Cleavage by York PSA [13]: 12 min
Time to 50% Substrate Cleavage by York PSA (Min) [14]: 23 (prod converts to 4-O-A-dAc-VIN)
Time to 50% Substrate Cleavage by York PSA [15]: 32 min
Time to 50% Substrate Cleavage by York PSA [16]: 15 min
Time to 50% Substrate Cleavage by York PSA [17]: 55 min
Time to 50% Substrate Cleavage by York PSA [18]: 10 min
